# T1: BnaA3.ABF4 (Brassica napus, UniProt X2C209 1-395)
# T1 sequence: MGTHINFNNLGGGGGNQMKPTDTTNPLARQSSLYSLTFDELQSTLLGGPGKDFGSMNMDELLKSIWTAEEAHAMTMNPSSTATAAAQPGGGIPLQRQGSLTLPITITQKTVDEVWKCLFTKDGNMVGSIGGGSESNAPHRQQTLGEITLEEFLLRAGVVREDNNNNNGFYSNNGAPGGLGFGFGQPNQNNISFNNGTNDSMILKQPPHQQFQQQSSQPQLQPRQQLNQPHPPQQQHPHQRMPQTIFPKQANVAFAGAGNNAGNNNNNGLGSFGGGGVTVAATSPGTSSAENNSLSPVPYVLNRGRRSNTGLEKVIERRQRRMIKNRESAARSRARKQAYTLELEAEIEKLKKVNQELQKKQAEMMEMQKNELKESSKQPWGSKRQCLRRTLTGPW
# Target: T1, BnaA3.ABF4
# Assay: EMSA; not given in the material
# Details: protein: recombinant; tags: GST (N-term, pGEX-4T-1); chain copies: 2; label: biotin
binder,measurement,value
BnaA9.NF-YA7 promoter ABRE probe (dsDNA) DNA 1: ATCTGCCCGTAATCTGCTACGTGCAATCTAAACGCTT DNA 2: AAGCGTTTAGATTGCACGTAGCAGATTACGGGCAGAT,binding result,binds

# From article PMC10920887, “Natural variation in BnaA9.NF-YA7 contributes to drought tolerance in Brassica napus L”
